Data published in EP4644423A1 (Biyopharma Co., Ltd, dated 2025).
Values belong to the binder of their own block, whether it stands above or below them.

Tests used:
RC-Fc [1] = target: T1, RC-Fc (human); experiment: ELISA, RC-Fc coated, VHH-His titrated, anti-His-HRP; Exp3
T1 construct: Knob-in-hole heterodimer of the R chain and the C chain, human IgG1 Fc; expressed in 293 cells, purified on Protein A; also called RC-Fc fusion protein; reconstructed CGRP receptor extracellular region

RC-Fc [2] = target: T1, RC-Fc; experiment: ELISA, RC-Fc coated, VHH-His titrated, anti-His-HRP; Exp2
[3] = target: CGRP receptor on SK-N-MC cells (UniProt O60894 27-148; Q16602 23-461, limits assumed); experiment: cell-based or functional assay
Chain of CGRP receptor on SK-N-MC cells (O60894 27-148 limits assumed, chain 1 of 2): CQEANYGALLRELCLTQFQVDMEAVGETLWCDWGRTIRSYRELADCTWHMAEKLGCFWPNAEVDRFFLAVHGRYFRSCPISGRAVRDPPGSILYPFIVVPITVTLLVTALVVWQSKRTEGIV
Chain of CGRP receptor on SK-N-MC cells (Q16602 23-461 limits assumed, chain 2 of 2): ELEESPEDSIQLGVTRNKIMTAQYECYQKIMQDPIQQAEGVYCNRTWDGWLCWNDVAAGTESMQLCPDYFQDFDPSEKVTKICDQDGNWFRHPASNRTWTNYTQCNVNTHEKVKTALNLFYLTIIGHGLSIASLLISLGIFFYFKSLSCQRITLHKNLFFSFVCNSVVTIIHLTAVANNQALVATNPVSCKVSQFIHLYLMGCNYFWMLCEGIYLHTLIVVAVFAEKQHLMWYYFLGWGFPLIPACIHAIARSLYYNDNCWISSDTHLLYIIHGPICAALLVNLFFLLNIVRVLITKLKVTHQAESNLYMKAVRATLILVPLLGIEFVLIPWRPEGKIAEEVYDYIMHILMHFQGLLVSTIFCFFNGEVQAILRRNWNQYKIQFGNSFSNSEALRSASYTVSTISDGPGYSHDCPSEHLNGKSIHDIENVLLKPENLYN

RC-Fc [4] = target: T1, RC-Fc; experiment: ELISA, RC-Fc coated, VHH-His titrated, anti-His-HRP; Exp1
RC-Fc [5] = target: T1, RC-Fc; experiment: ELISA, RC-Fc coated, VHH-His titrated, anti-His-HRP; average of Exp1-3
[6] = target: T2, pituitary adenylate cyclase-activating polypeptide (PACAP) (UniProt P18509 132-169, not fully specified; biotin label in the ELISA of Example 3 (Biotin-PACAP; position not stated); unlabelled in the cAMP assay); experiment: ELISA, Biotin-PACAP on streptavidin plate, Fc fusion titrated, anti-human IgG-HRP
T2 construct: also called PACAP38; Biotin-PACAP
T2 peptide (looked up): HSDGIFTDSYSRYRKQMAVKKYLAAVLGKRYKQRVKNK

T1 sequence (chain, as listed by the source limits assumed, chain 1 of 2): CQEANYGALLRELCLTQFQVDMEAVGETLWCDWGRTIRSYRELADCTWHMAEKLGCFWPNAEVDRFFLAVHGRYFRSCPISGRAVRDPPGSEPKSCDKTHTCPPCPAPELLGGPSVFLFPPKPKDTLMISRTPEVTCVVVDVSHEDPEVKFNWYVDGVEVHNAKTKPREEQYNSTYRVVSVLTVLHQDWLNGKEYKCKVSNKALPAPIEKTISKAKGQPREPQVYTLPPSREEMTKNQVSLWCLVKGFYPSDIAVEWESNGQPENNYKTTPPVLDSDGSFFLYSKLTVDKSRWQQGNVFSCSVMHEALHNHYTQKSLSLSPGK
T1 sequence (chain, as listed by the source limits assumed, chain 2 of 2): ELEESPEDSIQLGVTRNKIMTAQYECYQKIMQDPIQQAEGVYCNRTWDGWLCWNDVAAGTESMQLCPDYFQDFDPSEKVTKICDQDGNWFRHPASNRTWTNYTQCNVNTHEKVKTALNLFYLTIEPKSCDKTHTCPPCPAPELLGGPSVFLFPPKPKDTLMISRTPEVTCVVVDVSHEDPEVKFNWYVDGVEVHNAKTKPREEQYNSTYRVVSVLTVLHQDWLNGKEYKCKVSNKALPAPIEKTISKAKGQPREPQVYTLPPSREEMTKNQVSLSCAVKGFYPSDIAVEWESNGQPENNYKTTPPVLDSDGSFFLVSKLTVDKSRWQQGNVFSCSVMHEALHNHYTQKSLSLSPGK

B1: A10-268-5 (VHH)
VHH: QVQLVESGGGLVQAGGSLRLSCAVSGRTVTTITMGWFRQAPGKEREFVASISWDGLSTGYQDSVKGRFTISRDNAKNTVYLQMNSLKPEDTAVYYCAAGDSLWSWSKVPANYAYWGQGTQVTVSS
notes: Llama VHH with C-terminal 6xHis, expressed in 293 cells; also called B828601
- EC50 (RC-Fc [1]): 0.08 nM
- EC50 (RC-Fc [2]): 0.184 nM
- IC50 (nM), inhibition of CGRP-induced (5 nM) cAMP production in SK-N-MC cells [3]: > 10000 nM
- EC50 (RC-Fc [4]): 0.143 nM
- EC50 (RC-Fc [5]): 0.136 nM

B2: A10-268-42 (VHH)
VHH: QVQLVESGGGLVQAGDSLRLSCAASGRTFSGYVMGWFRQAPGKEREFVAALRWSSSNTNYAASVKGRFTISRDYAKDTVYLQMNSLKPDDTAVYYCAAKRDRPYGSTWTPVAADYDTWGQGTQVTVSS
notes: Llama VHH with C-terminal 6xHis, expressed in 293 cells; also called B828603; 42wt
- EC50 (RC-Fc [1]): 0.021 nM
- EC50 (RC-Fc [2]): 0.15 nM
- IC50 (nM), inhibition of CGRP-induced (5 nM) cAMP production in SK-N-MC cells [3]: 39.7 nM
- EC50 (RC-Fc [4]): 0.025 nM
- EC50 (RC-Fc [5]): 0.065 nM

B5: A10-268-76 (VHH)
VHH: QVQLVESGGGLVPAGGSLNLSCAASGRTFSTYAMGWFRQAPGKEREFVATINWDNGRTYYADSVKGRFTISRDNAKNMVYLQMNSLKPEDTAVYYCAADKTAIFRTSVVPDDYDYWGQGTQVTVSS
notes: Llama VHH with C-terminal 6xHis, expressed in 293 cells; also called B828604
- EC50 (RC-Fc [1]): 0.028 nM
- EC50 (RC-Fc [2]): 0.144 nM
- IC50 (nM), inhibition of CGRP-induced (5 nM) cAMP production in SK-N-MC cells [3]: > 10000 nM
- EC50 (RC-Fc [4]): 0.024 nM
- EC50 (RC-Fc [5]): 0.065 nM

B7: A10-268-103 (VHH)
VHH: QVQLVESGGGLVQAGGSLRLSCVASGRTFSSYAMGWFRQAPGKEREFVSGITESGATTRYADSMRGRFIISRDNAQNTVYLEMNSLKPEDSAVYYCAASRFGITVPTAKGAYNYWGQGTQVTVSS
notes: Llama VHH with C-terminal 6xHis, expressed in 293 cells; also called B828605
- EC50 (RC-Fc [1]): 0.265 nM
- EC50 (RC-Fc [2]): 0.114 nM
- IC50 (nM), inhibition of CGRP-induced (5 nM) cAMP production in SK-N-MC cells [3]: 279 nM
- EC50 (RC-Fc [4]): 0.372 nM
- EC50 (RC-Fc [5]): 0.25 nM

B9: A10-268-18 (VHH)
VHH: QVQLVESGGGQVQAGGSLRLSCAASGRISSSYDMGWLRQAPGKEREFVARITWSGGSTYYADSVKGRFTISRDSTKKTVYLQMNSLKPEDTAVYYCAANRAFTGQYDYWGQGTQVTVSS
- IC50 (nM), inhibition of CGRP-induced (5 nM) cAMP production in SK-N-MC cells [3]: 492 nM

More lines, now with the values ahead:

- IC50 (nM), inhibition of CGRP-induced (5 nM) cAMP production in SK-N-MC cells [3]: 23.6 nM
B3: A10-268-273 (VHH)
VHH: EVQLVESGGGLVQPGDSLTLSCAASGRAKNRYVMGWFRQAPGKEREFVAALRWSSSNTNYAASVKGRFTISRDYAKDTVYLQMNSLKPDDTAVYYCAAKRDRPYGSTWTPVAADYDTWGQGTQVTVSA

- binding result (RC-Fc [4]): no binding
B4: A10-269-56 (VHH)
VHH: EVQLVESGGGLVQAGGSLRLSCAASGSTFSGRYMGWFRQGQGKEREFVAASMWSGTAISYADSVKGRFTISRDNAKATMYLQMSSLKDEDTAVYYCAAGGLWNLKLSDAGYYEYWGQGTQVTVSS
notes: Llama VHH with C-terminal 6xHis, expressed in 293 cells; also called N220505101

- EC50 (RC-Fc [1]): 0.081 nM
- EC50 (RC-Fc [2]): 0.073 nM
- EC50 (RC-Fc [4]): 0.091 nM
- EC50 (RC-Fc [5]): 0.082 nM
B6: A10-269-238 (VHH)
VHH: QVQLVESGGGLVQPGGSLRLSCAASGFTFGNYDMSWVRQAPGKGPEWVSGIAPAGTITRYADSVKGRFTISRDNAKNTLYLQMNSLKPEDTAVYRCAKGASWGQGTQVTVSS
notes: Llama VHH with C-terminal 6xHis, expressed in 293 cells; also called N220505106

- EC50 (RC-Fc [1]): 0.042 nM
- EC50 (RC-Fc [2]): 0.051 nM
- EC50 (RC-Fc [4]): 0.056 nM
- EC50 (RC-Fc [5]): 0.05 nM
B8: A10-269-172 (VHH)
VHH: EVQVVESGGGLVQAGGSLRLSCVSSESSFSINTMRWYRQAPGKERELVASINSASSTYYGDAVKGRFTISRVNAKNTVYLQMNSLKPEDTAVYFCNTHSVLASRDYWGQGTQVTVSS
notes: Llama VHH with C-terminal 6xHis, expressed in 293 cells; also called N220505104

- fold binding ability against PAC1 ECD-Fc [6]: 40 times that of PAC1 ECD-Fc
B10: PAC1s ECD-Fc (Fc fusion)
chain: MHSDCIFKKEQAMCLEKIQRANELMGFNDSSPGCPGMWDNITCWKPAHVGEMVLVSCPELFRIFNPDQDMGVVSRNCTEDGWSEPFPHYFDACGFDEYESETGDQDYYYLSVKA
notes: C-terminus of PAC1s ECD fused to the N-terminus of Fc; also called PACs1 ECD-Fc; PACls ECD-Fc; not shown: Fc fused to the C-terminus of the ECD

- EC50 (RC-Fc [1]): 0.061 nM
- EC50 (RC-Fc [2]): 0.073 nM
- EC50 (RC-Fc [4]): 0.052 nM
- EC50 (RC-Fc [5]): 0.062 nM
B11: A10-269-385 (VHH)
VHH: EVQLVESGGGLVQAGGSLRVSCQASEISFSFHAMGWYRQAPGKQRELVARITSIGRTTYADFVKGRFTISRGNAKNTVYLQMNSLKPEDTAVYYCNAEPGRVNYEYWGQGTQVTVSS
notes: Llama VHH with C-terminal 6xHis, expressed in 293 cells; also called N220505107

- EC50 (RC-Fc [1]): 0.48 nM
- EC50 (RC-Fc [2]): 0.057 nM
- EC50 (RC-Fc [4]): 0.097 nM
- EC50 (RC-Fc [5]): 0.211 nM
B12: A10-269-165 (VHH)
VHH: QVQLVESGGGLVQAGGSLRLSCAASRTWFSIGAMGWYRQAPGKQRELVATITSGSSTTYADAVKGRFTVSRDNAENTVYLQMNSLKPEDTAVYYCYTKSRRKPWDLENDYWGQGTQVTVSS
notes: Llama VHH with C-terminal 6xHis, expressed in 293 cells; also called N220505103
